We go through four proteins from US6562613.

“Also recorded” adds a separate entry of the source.

This data set addresses 14C-labeled type I procollagen purified from chick embryo fibroblasts, P02457.

14C-labeled type I procollagen purified from chick embryo fibroblasts, P02457, sequence (P02457 23-1453, chain 1 of 2): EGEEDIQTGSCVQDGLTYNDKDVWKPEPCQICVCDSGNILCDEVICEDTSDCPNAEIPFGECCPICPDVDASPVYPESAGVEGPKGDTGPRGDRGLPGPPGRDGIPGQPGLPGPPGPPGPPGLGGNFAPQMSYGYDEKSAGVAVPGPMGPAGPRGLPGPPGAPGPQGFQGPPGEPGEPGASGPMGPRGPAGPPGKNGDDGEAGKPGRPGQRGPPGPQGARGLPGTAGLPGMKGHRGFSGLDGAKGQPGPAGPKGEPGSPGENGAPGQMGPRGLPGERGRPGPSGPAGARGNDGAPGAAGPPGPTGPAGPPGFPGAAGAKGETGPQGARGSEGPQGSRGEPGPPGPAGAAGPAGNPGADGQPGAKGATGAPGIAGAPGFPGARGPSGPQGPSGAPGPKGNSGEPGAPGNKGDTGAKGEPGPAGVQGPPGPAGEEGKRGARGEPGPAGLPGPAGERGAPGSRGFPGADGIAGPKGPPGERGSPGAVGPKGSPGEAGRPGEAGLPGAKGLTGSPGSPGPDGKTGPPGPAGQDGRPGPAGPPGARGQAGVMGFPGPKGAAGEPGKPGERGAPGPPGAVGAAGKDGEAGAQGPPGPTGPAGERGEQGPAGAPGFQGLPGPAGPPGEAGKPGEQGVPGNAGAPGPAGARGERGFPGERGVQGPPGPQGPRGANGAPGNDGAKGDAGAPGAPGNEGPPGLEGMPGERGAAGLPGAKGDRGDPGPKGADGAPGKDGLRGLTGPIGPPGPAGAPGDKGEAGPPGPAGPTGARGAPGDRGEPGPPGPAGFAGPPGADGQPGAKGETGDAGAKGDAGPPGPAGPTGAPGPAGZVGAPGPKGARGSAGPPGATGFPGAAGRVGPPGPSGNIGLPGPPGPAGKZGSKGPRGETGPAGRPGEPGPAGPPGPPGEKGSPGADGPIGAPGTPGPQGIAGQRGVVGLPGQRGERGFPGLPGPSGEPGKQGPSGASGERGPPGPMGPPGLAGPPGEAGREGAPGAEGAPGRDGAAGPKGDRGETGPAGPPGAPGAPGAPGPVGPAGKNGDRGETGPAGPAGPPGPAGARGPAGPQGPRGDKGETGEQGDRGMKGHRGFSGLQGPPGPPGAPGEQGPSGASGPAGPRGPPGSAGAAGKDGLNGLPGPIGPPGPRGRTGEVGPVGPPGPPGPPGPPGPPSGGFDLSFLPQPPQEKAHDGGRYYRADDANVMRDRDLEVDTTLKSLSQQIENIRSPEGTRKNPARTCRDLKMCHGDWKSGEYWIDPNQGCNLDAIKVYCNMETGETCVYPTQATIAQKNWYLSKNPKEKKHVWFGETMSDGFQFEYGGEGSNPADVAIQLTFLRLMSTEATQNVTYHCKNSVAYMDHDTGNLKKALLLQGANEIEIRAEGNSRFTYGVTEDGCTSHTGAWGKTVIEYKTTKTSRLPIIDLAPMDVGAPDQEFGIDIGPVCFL
14C-labeled type I procollagen purified from chick embryo fibroblasts, P02457, sequence (chain, as listed by the source, chain 2 of 2): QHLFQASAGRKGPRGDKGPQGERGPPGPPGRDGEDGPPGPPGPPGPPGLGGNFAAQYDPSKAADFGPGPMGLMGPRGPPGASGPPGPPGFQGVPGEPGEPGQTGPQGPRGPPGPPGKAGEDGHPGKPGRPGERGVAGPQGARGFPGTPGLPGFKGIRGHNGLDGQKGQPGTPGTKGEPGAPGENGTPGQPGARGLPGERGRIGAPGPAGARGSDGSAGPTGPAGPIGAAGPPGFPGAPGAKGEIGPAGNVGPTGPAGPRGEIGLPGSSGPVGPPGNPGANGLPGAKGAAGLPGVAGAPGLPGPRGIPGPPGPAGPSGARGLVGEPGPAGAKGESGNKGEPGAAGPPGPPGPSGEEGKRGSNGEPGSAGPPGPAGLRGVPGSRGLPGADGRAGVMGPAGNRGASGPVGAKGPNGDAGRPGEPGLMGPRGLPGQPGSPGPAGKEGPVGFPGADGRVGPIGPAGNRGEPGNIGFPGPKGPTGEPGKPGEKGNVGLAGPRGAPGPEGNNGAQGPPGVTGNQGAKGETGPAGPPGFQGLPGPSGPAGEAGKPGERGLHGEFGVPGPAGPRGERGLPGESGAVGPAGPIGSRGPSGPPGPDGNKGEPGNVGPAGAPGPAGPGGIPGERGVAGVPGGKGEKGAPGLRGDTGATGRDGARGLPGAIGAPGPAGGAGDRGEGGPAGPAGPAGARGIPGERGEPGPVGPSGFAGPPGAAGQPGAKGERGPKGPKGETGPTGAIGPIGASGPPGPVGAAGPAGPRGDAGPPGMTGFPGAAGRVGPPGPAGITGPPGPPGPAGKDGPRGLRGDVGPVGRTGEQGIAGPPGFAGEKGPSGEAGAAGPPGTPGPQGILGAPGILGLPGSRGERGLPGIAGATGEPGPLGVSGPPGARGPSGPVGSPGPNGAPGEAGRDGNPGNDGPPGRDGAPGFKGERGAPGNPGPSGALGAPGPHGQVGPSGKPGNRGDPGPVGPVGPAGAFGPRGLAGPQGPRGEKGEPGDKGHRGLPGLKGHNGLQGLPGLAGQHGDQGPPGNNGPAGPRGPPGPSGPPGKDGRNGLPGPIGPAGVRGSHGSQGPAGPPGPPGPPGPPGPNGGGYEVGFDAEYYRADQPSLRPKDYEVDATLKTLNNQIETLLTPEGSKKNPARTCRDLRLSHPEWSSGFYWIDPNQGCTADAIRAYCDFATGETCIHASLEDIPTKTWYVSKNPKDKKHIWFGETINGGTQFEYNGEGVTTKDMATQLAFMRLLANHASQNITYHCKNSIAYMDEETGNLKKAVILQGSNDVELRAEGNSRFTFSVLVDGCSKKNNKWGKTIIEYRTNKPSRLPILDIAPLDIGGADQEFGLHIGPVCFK

B1: procollagen C-proteinase pCP-1 (730 amino acids), recombinant, in medium of transfected HT-1080 cells (protein)
chain: AATSRPERVWPDGVIPFVIGGNFTGSQRAVFRQAMRHWEKHTCVTFLERTDEHSYILFTYRPCGCCSYVGPRGGGPQAISIGKNCDKFGIVVHELGHVVGFWHEHTRPDRDRHVSIVRENIQPGQEYNFLKMEPQEVESLGETYDFDSIMHYARNTFSRGIFLDTIVPKYEVNGVKPPIGQRTRLSKGDIAQARKLYKCPACGETLQDSTGNFSSPEYPNGYSAHMHCVWRISVTPGEKIILNFTSLDLYRSPLCWYDYVEVRDGFWRKAPLRGRFCGSKLPEPIVSTDSRLWVEFRSSSNWVGNGFFAVYEGICGGDVKKDYGHIQSPNYPDDYRPSKVCIWRIQVSEGFHVGLTFQSFEIERHDSCAYDYLEVRDGHSESSTLIGRYCGYEKPDDIKSTSSRLWLKFVSDGSINKAGFAVNFFKEVDECSRPNRGGCEQRCLNTLGSYKCSCHPGYELAPDKRRCEAACGGFLTKLNGSITSPGWPKEYPPNKNCIWQLVAPTQYRISLQFDFFETEGNDVCKYDFVEVRSGLTAHSKLHGKFCGSEKPEVITSQYNNMRVEFKSDNTVSKKGFKAHFFSENRPALQPPRGPPHQLKFRVQKRNRTPQ
With B1, the “C-proteinase activity: cleavage of 14C-labeled type I procollagen, SDS-polyacrylamide gel” value is listed as “Medium from neomycin-resistant clones expressing either pCP-1 or pCP-2 contained enzymatic activity that specifically cleaved type I procollagen into the products predicted by the introduction of C-proteinase”.

B2: recombinant pCP-2 with a 6-histidine tag, expressed in E. coli, refolded, without chymotrypsin activation (protein)
chain: LDFPDYTYDLAEEDDSEPLNYKDPCKAAAFLGDIALDEEDLRAFQVQQAVDVRRHTARKSSIKAAVPGNTSTPTCQSTNGQPQRGACGRWRGRSRSRRAATSRPEPVWPDGVIPFVIGGNFTGSQRAVFPQAMRHWEKHTCVTFLERTDEDSYILFTYAPCGCCSYVGRRGGGPQAISMGKNCDKFGIVVHELGHVVGLWHEHTGPDRDRQVSIVRENIQPGQEYNFLKMEPQEVESLGETYDFDSIMHYARNTFSRGIFLDTIVPKYEVNGVKPPIGQRTRLRKGDIAQAPKLYKCPACGETLQDSTGNFSSPEYPNGYSAHMHCVWRICVTPGEKIILNFTSLDLYRSGLCWYQYVEVRDGFWRKAPLRGRFCGSKLPEPIVSTDSRLWVQFRSSSNWLGKGFFPVYEAMWGGDVKKDYGQIQSPNYPDDYRPSKVWMWRIQVSEGFDVGLTFQSFEIERHDSCGYDYLEVRDGHSESSTLIGRYCRYEKPDEIKSTSSPLWLKFVSDGSINKPGFAVNFFKEVDECSRPNRGGCEQRCLNTLGSYKWSCDPGYELPPEKRRCEAPCGGFLTKLNGSISRGGWPKEYPPNKNCIWQLVAPTQYRISLQFDFFETEGNDVCKYDFVEVRSGLTADSKLHGKFCGSEKPEVITSQYNNMRVEFKSDNTVSKKGFKAHFFSDKDECSKDNGGCQQDCVNTFGSYECQCRSGFVLHDNKHDCKEPGCDHKVTSTSGTITSPNWPDKYPSKKECTWAISSTPGHRVKLTFMEMDIESQPECAYDHLEVFDGRDAKAPVLGRFCGSKKPEPVLGTGSRMFLRFYSDNSVQRKGFQASHATECGGQVGADVKTKDLYSHAQFGDNNYPGGVDCEWVIVPEEGYGVEVLFQTFEVEDQTDCGYHYMELFDGYDSTAPRLGRYCGSGPPEEVYSAGDSVLVKFHSDDTITKKGFHLRYTSTKFQDTLHSRK
On to B2, for which the “C-proteinase activity in a standard reaction system with 14C-labeled procollagen” value is given as “No C-proteinase activity was observed when the recombinant protein was incubated in a standard reaction system without prior activation of the protein by digestion with chymotrypsin”.

B3: procollagen C-proteinase pCP-2 (986 amino acids), recombinant, in medium of transfected HT-1080 cells (protein)
chain: AATSRPEPVWPDGVIPFVIGGNFTGSQRAVFPQAMRHWEKHTCVTFLERTDEDSYILFTYAPCGCCSYVGRRGGGPQAISMGKNCDKFGIVVHELGHVVGLWHEHTGPDRDRQVSIVRENIQPGQEYNFLKMEPQEVESLGETYDFDSIMHYARNTFSRGIFLDTIVPKYEVNGVKPPIGQRTRLRKGDIAQAPKLYKCPACGETLQDSTGNFSSPEYPNGYSAHMHCVWRICVTPGEKIILNFTSLDLYRSGLCWYQYVEVRDGFWRKAPLRGRFCGSKLPEPIVSTDSRLWVQFRSSSNWLGKGFFPVYEAMWGGDVKKDYGQIQSPNYPDDYRPSKVWMWRIQVSEGFDVGLTFQSFEIERHDSCGYDYLEVRDGHSESSTLIGRYCRYEKPDEIKSTSSPLWLKFVSDGSINKPGFAVNFFKEVDECSRPNRGGCEQRCLNTLGSYKWSCDPGYELPPEKRRCEAPCGGFLTKLNGSISRGGWPKEYPPNKNCIWQLVAPTQYRISLQFDFFETEGNDVCKYDFVEVRSGLTADSKLHGKFCGSEKPEVITSQYNNMRVEFKSDNTVSKKGFKAHFFSDKDECSKDNGGCQQDCVNTFGSYECQCRSGFVLHDNKHDCKEPGCDHKVTSTSGTITSPNWPDKYPSKKECTWAISSTPGHRVKLTFMEMDIESQPECAYDHLEVFDGRDAKAPVLGRFCGSKKPEPVLGTGSRMFLRFYSDNSVQRKGFQASHATECGGQVGADVKTKDLYSHAQFGDNNYPGGVDCEWVIVPEEGYGVEVLFQTFEVEDQTDCGYHYMELFDGYDSTAPRLGRYCGSGPPEEVYSAGDSVLVKFHSDDTITKKGFHLRYTSTKFQDTLHSRK
B3: the “C-proteinase activity: cleavage of 14C-labeled type I procollagen, SDS-polyacrylamide gel” value is “Medium from neomycin-resistant clones expressing either pCP-1 or pCP-2 contained enzymatic activity that specifically cleaved type I procollagen into the products predicted by the introduction of C-proteinase; also recorded: Complete cleavage of type I procollagen to pNα1 (I) chains, pNα2 (I) chains and the C-propeptide were obtained with medium from a clone transfected with pCP-2 and partially fractionated and concentrated by membrane filtration”.

B4: recombinant pCP-2 with a 6-histidine tag, expressed in E. coli, refolded and activated by limited digestion with chymotrypsin (protein)
chain: B3 chain
As to B4, the “C-proteinase activity in a standard reaction system with 14C-labeled procollagen” value is “Specific C-proteinase activity was observed (Lanes 1 to 4 in FIG. 5 ) after limited digestion with chymotrypsin” and the “specific activity relative to C-proteinase isolated from chick embryo tendons” value is on record as “about 1/30-th of the specific activity of C-proteinase isolated from chick embryo tendons”.
